According to patent US20240101675A1 (BIOLOJIC DESIGN, published 2024):
Residue numbers refer to the chain shown, from its start. Like-named read-outs stand apart in the source and are kept apart here.

T1: recombinant human GITR tagged with histidine tag (hGITR-His) (human, UniProt Q9Y5U5 26-161, limits assumed)
T1 construct: bought (Reprokine); not shown: histidine tag
T1 sequence (looked up): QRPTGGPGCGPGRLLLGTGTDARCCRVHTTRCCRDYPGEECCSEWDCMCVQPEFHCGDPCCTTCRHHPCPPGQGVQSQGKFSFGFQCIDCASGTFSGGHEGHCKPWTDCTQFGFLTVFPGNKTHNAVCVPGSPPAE

T2: recombinant human OX40 tagged with histidine tag (hOX40-His) (human, UniProt P43489 29-216)
T2 construct: bought (Reprokine); also called hOX-His; not shown: histidine tag
T2 sequence (looked up): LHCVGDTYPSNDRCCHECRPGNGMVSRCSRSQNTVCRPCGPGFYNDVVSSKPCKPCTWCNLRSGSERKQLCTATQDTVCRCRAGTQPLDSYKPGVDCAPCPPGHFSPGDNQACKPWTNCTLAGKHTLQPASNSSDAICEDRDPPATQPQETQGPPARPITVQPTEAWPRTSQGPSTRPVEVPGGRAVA

B1: G2 (GITR Library) (scFv, V domains shown)
VH: QVQLVESGGGVVQPGRSLRLDCKASGITFSNSGMHWVRQAPGKGLEWVAVIWYDGSLRYYADSVKGRFTISRDNSKNTLFLQMNSLRAEDTAVYYCATNDDYWGQGTLVTVSS
VL: EIVLTQSPATLSLSPGERATLSCRASQSVSDNLAWYQQKPGQAPRLLIYDADNRATGIPARFSGSGSGTDFTLTISSLEPEDFAVYYCQQSSNLPRTFGQGTKVEIK
notes: also called Clone G2; not shown: linker
B2: BDG32.005 (antibody, human IgG1, V domains shown)
VH: B1 VH
VL: B1 VL with Q89M, P95A
notes: human IgG1 format
B3: G1 (GITR Library) (scFv, V domains shown)
VH: B1 VH with V2A, P14A, S32R
VL: B1 VL
notes: not shown: linker
B4: BDG32.008 (antibody, human IgG1, V domains shown)
VH: B1 VH with T28D
VL: B1 VL with S30E, D31H, N32Y, I48V, D52S, S91Y, L94W, R96L
notes: human IgG1 format of clone 3212ACOXC7A
B5: BDG32.007 (antibody, human IgG1, V domains shown)
VH: B1 VH with L57K, R58T
VL: B1 VL with S30E, D31H, N32Y, D52G, S91Y, N93D, L94W, R96L
notes: human IgG1 format of clone 3212ACOXC5A

Columns and labels:
[1] = molecular target: T3, recombinant human PD-1 tagged with histidine tag (hPD-1-His) (human, UniProt Q15116 25-167, limits assumed); assay: yeast surface display flow cytometry: scFv on yeast, 111 nM hPD-1-His, anti-His-APC; median RFU
T3 construct: bought (Reprokine); not shown: histidine tag

[2] = molecular target: T3, recombinant human PD-1 tagged with …; assay: direct ELISA: antibody coated on the plate, hPD-1-His titrated, anti-His-HRP
Description: (§1) IgG binding affinity was examined by ELISA experiments. ELISA plates (Greiner Bio-One-high binding) were coated with 50 ul (100 ng) of the tested antibody and incubated for 1 hour at room temperature. Then plates were washed three times with 300 μl PBS buffer containing 0.05% Tween 20 (PBS-T), blocked with 300μ PBS-T supplemented with 1% to 3% BSA, and incubated for 1 hour at room temperature (RT). Antibodies-coated plates were then washed three times with 300 μl PBS-T and incubated with serial dilutions of test ligand either hPD-1-His, or hOX40-His, or hGITR-His (Reprokine, Israel) in a final volume of 50 ul for 1-3 hours. Plates were then washed three times with 300 μl PBS-T and incubated with 50 μl anti-HIS-HRP conjugate that was diluted 1:300 in PBS (Santa Cruz Biotechnology, USA). After an additional wash step, the reaction was developed with 50 ul tetrametylbenzidine (TMB) reagent (Southern biotech, USA), and stopped with 50 ul 0.5N H₂SO₄. […] The binding affinity was determined by fitting the data to a specific binding non-linear regression model on Prisma 8 GraphPad software.

[3] = molecular target: T1, recombinant human GITR tagged with …; assay: direct ELISA: antibody coated on the plate, hGITR-His titrated, anti-His-HRP
Description: as §1

[4] = molecular target: T1, recombinant human GITR tagged with …; assay: direct ELISA, antibody coated, hGITR-His titrated 0 to 865 nM
Description: as §1
ELISA assays were used to analyze the binding affinity of the IgG1 antibodies.

[5] = molecular target: T4, PD-1 on engineered Jurkat effector cells (PD-1/PD-L1 Blockade Bioassay) (UniProt Q15116 25-288, limits assumed); assay: cell-based or functional assay
[6] = molecular target: T3, recombinant human PD-1 tagged with …; assay: yeast surface display scFv, flow cytometry, 250 nM hPD-1-His
Description: (§2) The library was screened on BioRad S3e Fluorescence Activated Cell Sorter (FACS) for high affinity binders of recombinant h-GITR-His, or recombinant h-PD1-His, or recombinant h-OX40-His (Reprokine) using mouse anti Myc-FITC (Santa Cruze, USA) and goat anti-His-APC (Miltenyi Biotec, Germany) for fluorescence labeling. […] The chosen clones were incubated for 1 hour at room temperature with recombinant h-GITR-His, or hPD1-His, or hOX40-His, at the concentrations described in the example section. Cells were washed and resuspended in ice-cold PBS 0.1% BSA buffer containing a fluorescent labeled secondary antibody as described above for 20 min and analyzed using a flow cytometer. The values obtained were normalized to expression levels.

[7] = molecular target: T1, recombinant human GITR tagged with …; assay: yeast surface display scFv, flow cytometry
Description: as §2

[8] = molecular target: T2, recombinant human OX40 tagged with …; assay: direct ELISA, antibody coated, hOX40-His titrated 0 to 500 nM
Description: as §1

[9] = molecular target: T3, recombinant human PD-1 tagged with …; assay: direct ELISA: antibody coated on the plate, hPD-1-His titrated, anti-His-HRP; remark: listed apart in the source
Description: as §1

[10] = molecular target: T2, recombinant human OX40 tagged with …; assay: direct ELISA: antibody coated on the plate, hOX40-His titrated, anti-His-HRP
Description: as §1

[11] = molecular target: T4, PD-1 on engineered Jurkat effector …; assay: cell-based or functional assay; remark: listed apart in the source

Binder | IC50, cellular reporter PD1/PDL1 blocking assay (PD-1 dependent luminescence) [5] | EC50 [8] | EC50 (read off the curve) [9] | EC50 (read off the curve) [10] | also measured
B1 |  |  |  |  | binding result [1]: binds
B2 | ~614 nM |  |  |  | EC50 (read off the curve) [2]: ~3 nM; EC50 (read off the curve) [3]: ~4 nM; EC50 [4]: ~4 nM
B3 |  |  |  |  | binding result [6]: binds; binding result [7]: binds
B4 |  | ~24 nM | ~0.9 nM | ~20 nM | 
B5 | ~2.5 nM | ~26 nM | ~0.6 nM | ~30 nM | IC50 (read off the curve); PD-1/PD-L1 Blockade Bioassay, luciferase RLU [11]: ~2 nM
